Numbering of substitutions follows the chain as printed.
T1: Soluble ASGR-1 (human, UniProt P07306 62-291, biotinylated)
T1 construct: Soluble recombinant protein; also called recombinant, soluble ASGR-1 biotinylated protein
T1 sequence: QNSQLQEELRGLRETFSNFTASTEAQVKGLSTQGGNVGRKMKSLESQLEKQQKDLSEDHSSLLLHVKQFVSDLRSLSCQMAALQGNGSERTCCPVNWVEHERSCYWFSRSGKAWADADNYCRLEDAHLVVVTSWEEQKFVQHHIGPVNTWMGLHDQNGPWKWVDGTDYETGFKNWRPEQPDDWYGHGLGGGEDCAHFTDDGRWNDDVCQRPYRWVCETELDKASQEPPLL

T2: Cyno ASGR-1 (cynomolgus monkey, UniProt P07306 1-291 (human entry))
T2 construct: Expressed on HEK 293 cells or as membrane prep on beads; cDNA from XP_005582755; also called cynomologus monkey ASGR-1
T2 chain: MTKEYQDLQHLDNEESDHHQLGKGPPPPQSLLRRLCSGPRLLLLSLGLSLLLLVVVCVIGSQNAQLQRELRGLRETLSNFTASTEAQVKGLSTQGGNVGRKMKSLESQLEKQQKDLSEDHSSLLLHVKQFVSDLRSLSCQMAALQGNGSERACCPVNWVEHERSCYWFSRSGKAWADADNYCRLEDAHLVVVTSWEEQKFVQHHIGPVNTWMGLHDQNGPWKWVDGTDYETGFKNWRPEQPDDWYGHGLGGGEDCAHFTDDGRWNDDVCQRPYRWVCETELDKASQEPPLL

B1: 7E11 (antibody, V domains shown)
VH: QVQLVESGGGVVQPGRSLRLSCAASGFTFSSFGMHWVRQAPGKGLEWVAIIWHDGSNKYYADSVKGRFTISRDNSNNTLYLQMSSLRAEDTAVYYCARDLSMGGMDVWGQGTTVTVSS
VL: DIQMTQSPSSLSASVGDRVTIACRASQNIISYLNWYQQKPGKAPKFLIYTASSLQSGVPSRFSGSGSGTDFTLTISSLQPEDFAIYYCQQTYSTPLTFGGGTKVEIK
notes: Tested as hybridoma supernatant at normalized concentration
B2: 22G5 (antibody, V domains shown)
VH: EVQLLESGGGLVQPGGSLRLSCAASGFTFSSYAMNWVRQAPGMGLEWVSVISRSGGYTYYADSVKGRFTISRDNSKNTLYLQMNSLRAEDTAVYYCASRLAVAGSEAFDIWGQGTLVTVSS
VL: DIQMTQSPSSLSASVGDRVTITCRASQNISSYLNWYQQKQGKAPKLLIYAASSLQNGVPSRFSGRGSGTDFTLTISSLQPEDFATYYCQQSYRTPLFTFGPGTKVDFK
notes: as for B1
B3: 190F8 (antibody, V domains shown)
VH: QVQLVESGGGVVQPGRSLRLSCAASGFTFSTYGMHWVRQAPGKGLEWVAVIWYDGSNKNYADSVKGRFTISRDNSKNTLYLQMNSLRAEDTAVYYCARDQGVGYDGLDVWGQGTTVTVSS
VL: DIQMTQSPSSLSASVGDRVTITCRTSQGIGNYLAWFQQKPGKAPKSLLYKASSLQSGVPSKFSGSGSGTDFTLTISSLQPEDFATYYCQQYMTYPLTFGGGTKVEIK
notes: as for B1
B4: 194C1 (antibody, V domains shown)
VH: B3 VH with T31S, K58E, N59H, D99N, Q100R, D105Y
VL: B3 VL with T25A, G30S, L48I, K50A, Q89L, Q90H, M92L
notes: as for B1
B5: 197G3 (antibody, V domains shown)
VH: B3 VH with A23V, T31S, Y32H, Q100P, G101S, L107M
VL: DIQMTQSPSSLSASVGDRVTITCRASQGIGNHLAWFQQKPGKAPKSLIYAASSLQSGVPSKFSGSRSGTDFSLTISSLQPEDFATYYCQQYSNYPVTFGPGTKVDIK
notes: as for B1
B6: 191G1 (antibody, V domains shown)
VH: B3 VH with T31S, K58E, N59H, Q100R, D105Y
VL: B3 VL with T25A, G30S, L48I, K50A, Q90H, M92L
notes: as for B1
B7: 198G3 (antibody, V domains shown)
VH: B3 VH with R19K, S56T, Y80C
VL: B3 VL with T5A, N31K, S56G
notes: as for B1
B8: 191G10 (antibody, V domains shown)
VH: B3 VH with T31S
VL: B3 VL with N31K, A51V
notes: as for B1
B9: 202A3 (antibody, V domains shown)
VH: QVQLEQSGAEVKKPGASVKVSCKASGYTFTSYDINWVRQATGQGLEWLGWMNPKRGNTGYAQKFQGRVTMTRNTSISTAHMELSSLRSEDTAVYYCARGRYSREDYYYYYDMDVWGQGTTVTVSS
VL: DIQMSQSPSSLSASVGDRVTITCRASQGIRNDLGWYQQKPGKAPKRLICAASRLQSGVPSRFSGSGSGTEFTLTISSLQPEDFAIYYCLQHHDYPFTFGPGTKVDIK
notes: as for B1
B10: 218G4 (antibody, V domains shown)
VH: QVQLVESGGGVVQPGRSLRLSCAASGFTFSSYGLHWVRQAPGKGLEWVAVIWYDGSNKYYADSVKGRFTISRDNSKNTLYLQMNSLRVEDTAVYYCANWYYYYYGMDVWGQGTTVTVSS
VL: QSVLTQPPSVSAAPGQKVTISCSGSSSNIGNNYVSWYQQLPGTAPKLLLYDSNKRPSGIPARFSGSKSGTSATLGITGLQTGDEADYYCGTWDSSLNTVVFGGGTKLTVL
notes: as for B1
B11: 198D2 (antibody, V domains shown)
VH: QVQLVESGGGVVQPGRSLRLSCAASGFTFRSYGMHWVRQAPGKGLEWVAVIIYDGSYKYYADSVKGRFTISRDNSKNTLYLQMNSLRAEDTAVYYCARTYSGGMDVWGQGTTVTVSS
VL: B10 VL with N31S, L47V, L49I, S52N, A61D, S95R, T98V, V99G
notes: as for B1
B12: 75G3 (antibody, V domains shown)
VH: QVQLQQWGAGLLKPSETLSLTCAVYGGSLSGSYWSWIRQPPGKGLEWIGEINLSGSTNYNPSLKSRVTISVDTSKSQFSLTLRSVTAADTAVYYCARDYGGLDYWGQGTLVTVSS
VL: EIVLTQSPGTLSLSPGERATLSCRARQNVDSSYLAWYQQKPGQAPRLLIYGASSRATGIPDRFSGSGSGTDFTLTISRLEPEDFAVFYCQQYERSPWTFGQGTKVEIK
notes: as for B1
B13: 6G7 (antibody, V domains shown)
VH: QVQLVESGGGVVQPGRSLRLSCAASGFTFSSYGMHWVRQTPGKGLEWVAIISYVGKNKYYADSVKGRFTISRDNSKNTLYLQMNSLRAEDTAVYYCARRGNSYGGYGMDVWGQGTTVTVSS
VL: DIQMTQSPSSRSASVGDRVTITCQASQDISNYLNWCQQKPGKALKLLIYDASTLETGVPSRFSGSGSGTDFTFTISSVQPEDIATYYCQQYDNVPITFGQGTRLEIK
notes: as for B1
B14: 54E9 (antibody, V domains shown)
VH: QVQLVQSGAEVKKPGASVKVSCKASGYTFNSYGISWVRLAPGQGLEWMGWISAYNGNTKNAQKLQGRVTMTTDTSTSTAYMELRSLRSDDTAVYYCARHDFWSGYYKGMDVWGQGTTVTVSS
VL: not shown
notes: as for B1
B15: 193E7 (antibody, V domains shown)
VH: QVQLQQWGAGLLKPSETLSLTCAVYGGSFSGYFWTWIRQPPGKGLEWIGEINHSGSTNYNPSLKSRVTISVDTSKNQFSLKLSSVTAADTAVYYCARDYGADYWGQGTLVAVSA
VL: DIQMTQSPSSLSASVGDRVTITCRASQGIRNDLGWYQQKPGKAPKRLIYSASSLQRGVPSRFSGSGSGTEFTLTISSLQPEDFATYYCLQHKRYPLTFGGGTKVEIK
notes: as for B1
B16: 7G4 (antibody, V domains shown)
VH: QVQLVESGGGVVQPGRSLRLSCAASGFTFNNYVMHWVRQAPGKGLEWVAVIWYDGSNKYYADSVKGRFTISRDNSKNTLYLQMTSLRAEDTAVYYCAREKYSSNWYDYGMDVWGQGTTVTVSS
VL: B15 VL with K39R, S50A, R56S, F83S, Q90H, H91Q, K92Y, R93S, L96R, G100Q
notes: as for B1
B17: 5E5 (antibody, V domains shown)
VH: B16 VH with N30S, T84N, A97T, K100V, N104G
VL: B15 VL with S50A, R56S, K92Y, R93S, L96R, G100Q, I106V
notes: as for B1

How the values were obtained:
[1] = molecular target: T1, Soluble ASGR-1; assay: limited antigen binding assay; biotinylated soluble ASGR-1 coated at 2.5 ng/mL on LumAvidin beads, FACS
Procedure: To assess antibody and antigen interaction strength (relative binding affinity), ASGR-1 specific, ligand competing antibody hybridoma supernatants were tested in a limiting antigen binding assay. Titrated amounts of recombinant, soluble ASGR-1 biotinylated protein was incubated with streptavidin-coated LumAvidin Beads® for 45 minutes in the dark at room temperature and washed twice. Beads were resuspeneded in FACS buffer containing Stabilguard® and 0.05% Sodium Azide. Antigen-bound beads were then incubated with normalized hybridoma supernatant sample or controls for 18 hours in the dark at room temperature, washed twice, incubated with Alexa Fluor® 488 IgG fragment-specific detection antibody for 15 minutes in the dark at room temperature, washed once and finally resuspended in FACS buffer. Samples were analyzed using an Intellicyt iQue™ Screener Platform. FACS buffer supplemented with 1 mM Calcium Chloride was used in all steps. […] In this assay method, the antibody binding signal correlates with antibody affinity. Antibody binding data for a representative antigen coating concentration that fell in the linear range of the instrument signal detection is shown in Table 7.2. The degree of antibody binding to the target (ASGR-1) correlates with the measured fluorescent intensity and thus allows a relative comparison of affinities across the panel.

[2] = molecular target: T2, Cyno ASGR-1; assay: FACS on transfected HEK 293 cells or membrane preps on beads; Y = signal at least 2x irrelevant IgG
Procedure: Human ASGR-1-specific, ligand competing antibody samples were tested for binding to ASGR-1 from other species (cynomologus monkey ASGR-1, mouse ASGR-1, rat ASGR-1, dog ASGR-1, and pig ASGR-1) as well as to human ASGR-2 in FACS binding assays at normalized antibody concentrations. For cell-based assays, HEK 293 cells expressing the appropriate antigen of interest were mixed with antibody sample or controls, incubated for 1 hour at 4° C., and then washed twice. Cells with bound antibody were then incubated with Alexa Fluor® 647 IgG Fc fragment-specific detection antibody and 7-AAD viability stain for 15 minutes at 4° C., washed once and resuspended in FACS buffer. Samples were analyzed using a BD Accuri™ Flow Cytometer and an Intellicyt HyperCyt Autosampler. As a negative control, supernatants and controls were also screened against HEK 293 cells transfected with empty parental vector. […] For membrane-prep binding assays, ASGR-1 species specific membrane preps were used to coat LumAvidin® microspheres (beads) and tested for binding to selected hybridoma supernatants or controls. Briefly, ASGR-1 species specific membrane preps were incubated with streptavidin-coated LumAvidin® beads for 45 minutes in the dark at room temperature and washed twice. Beads were resuspeneded in FACS buffer containing Stabilguard®. Antigen-bound beads were then incubated with normalized antibody sample for 1 hour in the dark at room temperature, washed twice, incubated with Alexa Fluor® 488 IgG Fc fragment-specific detection antibody for 15 minutes in the dark at room temperature, washed once and finally resuspended in FACS buffer. Samples were analyzed using an Intellicyt iQue™ Screener Platform. FACS buffer supplemented with 1 mM Calcium Chloride was used in all steps. As a negative control, supernatants and controls were also screened against a non-ASGR-1 antigen membrane prep coated on the LumAvidin® beads.

Row | Binder | FACS Geomean [1] | binding result [2]
1 | B1 | 4660 FACS Geomean | binds
2 | B2 | 1080 FACS Geomean | binds
3 | B3 | 13900 FACS Geomean | binds
4 | B4 | 16900 FACS Geomean | binds
5 | B5 | 17700 FACS Geomean | binds
6 | B6 | 9550 FACS Geomean | binds
7 | B7 | 26000 FACS Geomean | binds
8 | B8 | 24200 FACS Geomean | binds
9 | B9 | 2150 FACS Geomean | binds
10 | B10 | 15100 FACS Geomean | binds
11 | B11 | 1870 FACS Geomean | binds
12 | B12 | 35800 FACS Geomean | binds
13 | B13 | 2290 FACS Geomean | binds
14 | B14 | 6490 FACS Geomean | binds
15 | B15 | 18300 FACS Geomean | binds
16 | B16 | 6800 FACS Geomean | binds
17 | B17 | 3280 FACS Geomean | binds

— patent US20190248902A1 (published 2019)
